The text below walks through data of patent US9028816 (Ablynx, dated 2015).

One test concerns the target T1, collagen type I.
T1 construct: coated on the microtiter plate
Put plainly: ELISA: collagen type I coated at 25 µg/ml, purified VHH in twofold dilutions, detection as in Example 7 (Example 34) [collagen type I]. On the technique in general: ELISA stands for enzyme-linked immunosorbent assay.

Test [1] deals with T2, human von Willebrand factor (vWF) (human, UniProt P04275 764-2813).
T2 construct: also called Human vWF
Put plainly: ELISA: coated vWF, purified vWF A1-specific VHH, as in Example 7 (Example 20).

A further test has as its target pig serum albumin (pig, UniProt P08835 25-607). In words: phage on blotted plasma (1/10).
The target in test [2] is human serum albumin (HSA) (human, UniProt P02768 25-609). In words: phage on blotted plasma (1/10).
For test [3], the target named is T3, mouse serum albumin (MSA) (mouse, UniProt P07724 25-608).
T3 construct: also called mouse albumin
T3 sequence (P07724 25-608 limits assumed): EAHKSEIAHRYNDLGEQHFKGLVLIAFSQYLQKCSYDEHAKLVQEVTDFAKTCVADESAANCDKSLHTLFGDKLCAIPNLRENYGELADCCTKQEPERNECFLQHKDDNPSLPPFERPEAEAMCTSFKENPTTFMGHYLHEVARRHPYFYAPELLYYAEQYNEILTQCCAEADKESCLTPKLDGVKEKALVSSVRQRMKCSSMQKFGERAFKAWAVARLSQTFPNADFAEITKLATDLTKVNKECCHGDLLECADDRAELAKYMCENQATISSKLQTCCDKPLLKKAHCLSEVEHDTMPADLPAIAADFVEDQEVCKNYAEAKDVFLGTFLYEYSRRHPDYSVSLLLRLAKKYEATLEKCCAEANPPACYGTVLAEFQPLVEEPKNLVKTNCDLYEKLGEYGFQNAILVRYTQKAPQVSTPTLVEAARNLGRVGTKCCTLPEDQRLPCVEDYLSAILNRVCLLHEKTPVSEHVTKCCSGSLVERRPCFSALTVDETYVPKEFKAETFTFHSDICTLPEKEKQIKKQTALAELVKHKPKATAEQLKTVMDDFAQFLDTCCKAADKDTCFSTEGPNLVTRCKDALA
In words: ELISA: MSA coated at 5 µg/ml, purified nanobody in 1/3 dilutions, detection with rabbit anti-nanobody serum and anti-rabbit alkaline phosphatase, PNPP (Example 50).

Sequence of pig serum albumin (P08835 25-607 limits assumed): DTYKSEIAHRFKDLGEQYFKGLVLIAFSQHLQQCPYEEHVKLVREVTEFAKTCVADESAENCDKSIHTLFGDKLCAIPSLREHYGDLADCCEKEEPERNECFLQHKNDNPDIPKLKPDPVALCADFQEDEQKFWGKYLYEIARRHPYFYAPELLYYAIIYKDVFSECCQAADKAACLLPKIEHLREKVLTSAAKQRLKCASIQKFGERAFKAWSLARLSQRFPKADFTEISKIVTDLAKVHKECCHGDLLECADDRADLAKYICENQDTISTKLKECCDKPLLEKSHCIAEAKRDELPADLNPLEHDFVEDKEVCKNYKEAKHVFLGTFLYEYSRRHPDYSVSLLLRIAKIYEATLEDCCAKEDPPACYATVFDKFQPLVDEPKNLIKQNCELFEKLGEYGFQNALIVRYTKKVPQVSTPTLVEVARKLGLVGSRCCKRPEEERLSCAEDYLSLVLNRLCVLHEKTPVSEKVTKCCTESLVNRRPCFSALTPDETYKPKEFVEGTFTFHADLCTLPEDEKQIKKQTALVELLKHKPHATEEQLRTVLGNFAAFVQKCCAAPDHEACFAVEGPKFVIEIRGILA

B1: 3L-41 (VHH)
VHH: QVQLQDSGGGLVQAGGSLRLSCAASGRTFRRYAMGWYRQAPGKQRVLVAAITSNGRPSVADSVKGRFTISSDTAKNTVYLQMNSLKPEDTALYYCTLYNTSADYYNQSPSSWGQGTQVTVLS
As a reminder, the EC50 (read off the curve) is the midpoint of the concentration-response curve. Lower therefore signals greater potency. Consider B1, for which, in the test with collagen type I, the concentration giving a half-maximal response (EC50 (read off the curve)) is ~10 nM.

B2: 3P1-31 (VHH)
VHH: QVQLQESGGGLVQAGGSLRLSCAASGRTFRRYAMGWYRQAPGKQRELVAAITSGGRTSVADTVKGRFTISSDNAKNTVYLQMNSLKPEDAAVYYCTLYNSTTNYYNQSPSSWGQGTQVTVSS
For B2, the “EC50 (read off the curve)” value with collagen type I is ~200 nM.

B3: Z29 (VHH)
VHH: QVQLQESGGGSVQAGDSLTLSCAASGRTFSMHAMGWFRQAPGKEREFVAAISPSAFTEYADSLKGRFTVSRDNAKKLVWLQMNGLKPEDTAAYYCAARRGAFTATTAPLYDYWGQGTQVTVSS
As for B3, the “EC50 (read off the curve)” value in test [1] is ~70 nM.

B4: MSA24 (VHH)
VHH: QVQLQESGGGLVQPGNSLRLSCAASGFTFRNFGMSWVRQAPGKEPEWVSSISGSGSNTIYADSVKDRFTISRDNAKSTLYLQMNSLKPEDTAVYYCTIGGSLSRSSQGTQVTVSS
As for B4, the binding result (with pig serum albumin; in test [2]) was “binds” in each case. For the same molecule, in test [3], the “EC50 (read off the curve)” value is ~0.6 nM.
